Experimental findings from doi:10.1101/276808 (bioRxiv, 2018) are described below.

Values joined by “and” are separate entries in the source; they are usually repeats but may differ in a detail not shown here. Equal entries are not always repeated.

The data set concerns the molecule itself. As to the kind of experiment: native gel or EMSA.

B1: Lrp (natural protein, Escherichia coli, UniProt P0ACJ0 1-164, looked up)
chain: MVDSKKRPGKDLDRIDRNILNELQKDGRISNVELSKRVGLSPTPCLERVRRLERQGFIQGYTALLNPHYLDASLLVFVEITLNRGAPDVFEQFNTAVQKLEEIQECHLVSGDFDYLLKTRVPDMSAYRKLLGETLLRLPGVNDTRTYVVMEEVKQSNRLVIKTR
B1: the “stoichiometry N” value is 8 and 16.

One may read the stoichiometry N as a count of units in the complex or per binding partner.
